Self-cleavage data for 54 variants are collected here from the RNAGym collection of RNA variant scans (doi:10.7554/elife.80360).

B1: Twister Ribozyme (parent)
chain: AACACUGCCAAUGCCGGUCCCAAGCCCGGAUAAAAGUGGAGGGGGCGG

In this data set the parent is B1. The data set is described as follows: self-cleavage, relative activity (ratio to wild type); higher = more cleavage; co-transcriptional.
Take AAUACUGCCAAUGCCGGUCCCGAGCCCGGAUAAAAGUGGAGGGGGCGG [C3U A22G]: the self-cleavage is 0.0518.

As for AAUACUGCCAAUGCCGGUCCCCAGCCCGGAUAAAAGUGGAGGGGGCGG [C3U A22C], the self-cleavage worked out at 0.549.

AAUACUGCCAAUGCCGGUCCCUAGCCCGGAUAAAAGUGGAGGGGGCGG [C3U A22U]: the self-cleavage was 0.255.

Take AAUACUGCCAAUGCCGGUCGCAAGCCCGGAUAAAAGUGGAGGGGGCGG [C3U C20G]: the self-cleavage worked out at 0.0703.

With AAUACUGCCAAUGCCGGUCACAAGCCCGGAUAAAAGUGGAGGGGGCGG [C3U C20A], the self-cleavage was found to be 0.07.

Consider AAUACUGCCAAUGCCGGUCCCAAGCCCGGAUAAAAGUGUAGGGGGCGG [C3U G39U], for which the self-cleavage was found to be 0.066.

Take AAUACUGCCAAUGCCGGUCCCAAGCCCGGAUAAAAAUGGAGGGGGCGG [C3U G36A]: the self-cleavage was 0.115.

On to AAUACUGCCAAUGCCGGUCCCAAGCCCGGAUAAAAGUGGAGGGGGGGG [C3U C46G], for which the self-cleavage was found to be 0.526.

As for AAUACUGCCAAUGCCGGUCCCAAGCCCGGAUAAAAGUGGAGGGGGUGG [C3U C46U], the self-cleavage stood at 0.503.

Take AAUACUGCCAAUGCCGGUCCCAAGCCCGGAUAAAAGUUGAGGGGGCGG [C3U G38U]: the self-cleavage worked out at 0.409.

In the case of AAUACUGCCAAUGCCGGUCCCAAGCCCGGAUACAAGUGGAGGGGGCGG [C3U A33C], the self-cleavage stood at 0.476.

Take AAUACUGCCAAUGCCGGUCCCAAGCCCGGAUAUAAGUGGAGGGGGCGG [C3U A33U]: the self-cleavage stood at 0.471.

For the variant AAUACUGCCAAUGCCGGUCCCAAGCCCGGAUAAAAGUGGCGGGGGCGG [C3U A40C], the self-cleavage was found to be 0.0947.

As for AAUACUGCCAAUGCCGGUCCCAAGCCCGGCUAAAAGUGGAGGGGGCGG [C3U A30C], the self-cleavage is 0.335.

On to AAUACUGCCAAUGCCGGUCCCAAGCCCGGGUAAAAGUGGAGGGGGCGG [C3U A30G], for which the self-cleavage stood at 0.422.

As for AAUACUGCCAAUGCCGGUCCCAAGCCCGGAUAAAAGUGGAAGGGGCGG [C3U G41A], the self-cleavage turned out to be 0.117.

For the variant AAUACUGCCAAUGCCGGUCCCAAGCCCGGAUAAAAGUGGACGGGGCGG [C3U G41C], the self-cleavage amounted to 0.099.

Turning to AAUACUGCCAAUGCCGGUCCCAAGCCCGGAUAAGAGUGGAGGGGGCGG [C3U A34G], the self-cleavage was determined as 0.153.

In the case of AAUACUGCCAAUGCCGGUCCCAAGCCCGGAUAAUAGUGGAGGGGGCGG [C3U A34U], the self-cleavage was 0.314.

Take AAUACUGCCAAUGCCGGUCCCACGCCCGGAUAAAAGUGGAGGGGGCGG [C3U A23C]: the self-cleavage amounted to 0.12.

AAUACUGCCAAUGCCGGUGCCAAGCCCGGAUAAAAGUGGAGGGGGCGG [C3U C19G]: the self-cleavage was 0.106.

Take AAUACUGCCAAUGCCGCUCCCAAGCCCGGAUAAAAGUGGAGGGGGCGG [C3U G17C]: the self-cleavage was found to be 0.0683.

Consider AAUACUGCCAAUGCCGUUCCCAAGCCCGGAUAAAAGUGGAGGGGGCGG [C3U G17U], for which the self-cleavage worked out at 0.0762.

For the variant AAUACUGCCAAUGCCGGUCCCAAGCCCGGAUAAAGGUGGAGGGGGCGG [C3U A35G], the self-cleavage is 0.136.

On to AAUACUGCCAAUGCCGGUCCCAAGCCCGGAUCAAAGUGGAGGGGGCGG [C3U A32C], for which the self-cleavage turned out to be 0.532.

AAUACUGCCAAUGCCGGUCCCAAGCCCGGAUUAAAGUGGAGGGGGCGG [C3U A32U]: the self-cleavage came to 0.402.

On to AAUACUGCCAAUGCCGGUCCCAAGCCCGGAUGAAAGUGGAGGGGGCGG [C3U A32G], for which the self-cleavage turned out to be 0.369.

AAUACUGCCAAUACCGGUCCCAAGCCCGGAUAAAAGUGGAGGGGGCGG [C3U G13A]: the self-cleavage is 0.402.

For AAUACUGCCAAUGUCGGUCCCAAGCCCGGAUAAAAGUGGAGGGGGCGG [C3U C14U], the self-cleavage turned out to be 0.376.

As to AAUACUGCCAAUGACGGUCCCAAGCCCGGAUAAAAGUGGAGGGGGCGG [C3U C14A], the self-cleavage stood at 0.351.

In the case of AAUACUGCCAAUGGCGGUCCCAAGCCCGGAUAAAAGUGGAGGGGGCGG [C3U C14G], the self-cleavage was found to be 0.0572.

In the case of AAUACUGCCGAUGCCGGUCCCAAGCCCGGAUAAAAGUGGAGGGGGCGG [C3U A10G], the self-cleavage turned out to be 0.474.

Turning to AAUACUGCCUAUGCCGGUCCCAAGCCCGGAUAAAAGUGGAGGGGGCGG [C3U A10U], the self-cleavage came out at 0.584.

For AAUACUGCCAAUGCCGGUCCCAAGCCCUGAUAAAAGUGGAGGGGGCGG [C3U G28U], the self-cleavage worked out at 0.325.

In the case of AAUACUGCCAAUGCCGGUCCCAAGACCGGAUAAAAGUGGAGGGGGCGG [C3U C25A], the self-cleavage amounted to 0.0634.

For the variant AAUACUGCCAAUGCCGGUCCCAAGGCCGGAUAAAAGUGGAGGGGGCGG [C3U C25G], the self-cleavage turned out to be 0.0982.

For the variant AAUACUCCCAAUGCCGGUCCCAAGCCCGGAUAAAAGUGGAGGGGGCGG [C3U G7C], the self-cleavage is 0.0424.

On to AAUACUACCAAUGCCGGUCCCAAGCCCGGAUAAAAGUGGAGGGGGCGG [C3U G7A], for which the self-cleavage amounted to 0.0905.

Turning to AAUACUGCCAAUGCCGGUCCCAAACCCGGAUAAAAGUGGAGGGGGCGG [C3U G24A], the self-cleavage was determined as 0.0721.

Regarding AAUACUGCCAAUGCCGGUCCCAAGCCCGCAUAAAAGUGGAGGGGGCGG [C3U G29C], the self-cleavage was 0.277.

In the case of AAUACUGCCAAUGCCGGUCCCAAGCCCGUAUAAAAGUGGAGGGGGCGG [C3U G29U], the self-cleavage came to 0.464.

With AAUACUGACAAUGCCGGUCCCAAGCCCGGAUAAAAGUGGAGGGGGCGG [C3U C8A], the self-cleavage came to 0.17.

Regarding AAUACUGGCAAUGCCGGUCCCAAGCCCGGAUAAAAGUGGAGGGGGCGG [C3U C8G], the self-cleavage is 0.0577.

Turning to AAUACUGUCAAUGCCGGUCCCAAGCCCGGAUAAAAGUGGAGGGGGCGG [C3U C8U], the self-cleavage stood at 0.216.

For AAUACUGCGAAUGCCGGUCCCAAGCCCGGAUAAAAGUGGAGGGGGCGG [C3U C9G], the self-cleavage was found to be 0.12.

On to AAUACUGCAAAUGCCGGUCCCAAGCCCGGAUAAAAGUGGAGGGGGCGG [C3U C9A], for which the self-cleavage amounted to 0.147.

As for AAUACUGCCAAUGCCGGUCCCAAGCACGGAUAAAAGUGGAGGGGGCGG [C3U C26A], the self-cleavage was 0.148.

Turning to AAUACUGCCAAUGCGGGUCCCAAGCCCGGAUAAAAGUGGAGGGGGCGG [C3U C15G], the self-cleavage is 0.125.

In the case of AAUACUGCCAAUGCUGGUCCCAAGCCCGGAUAAAAGUGGAGGGGGCGG [C3U C15U], the self-cleavage was 0.335.

AAUACUGCCAAUGCCGGUCCCAAGCCCGGAUAAAAGUGGAGGGUGCGG [C3U G44U]: the self-cleavage was 0.436.

Consider AAUACUGCCAAUGCCGGUCCCAAGCCCGGAUAAAAGUGGAGGGAGCGG [C3U G44A], for which the self-cleavage turned out to be 0.382.

As to AAUACUGCCAAUGCCGGUCCCAAGCCCGGAUAAAAGUGGAGAGGGCGG [C3U G42A], the self-cleavage worked out at 0.0772.

Take AAUACUGCCAAUGCCGGUCCCAAGCCCGGAUAAAAGUGGAGUGGGCGG [C3U G42U]: the self-cleavage worked out at 0.0877.

Turning to AAUACUGCCAAUGCCGGUCCUAAGCCCGGAUAAAAGUGGAGGGGGCGG [C3U C21U], the self-cleavage amounted to 0.0611.
